These results are taken from US20200247886A1.

This test has as its target human CD47 expressed on cells (CD47 expressing CHO cells, Jurkat, HL60, DLD1, Raji) (human) (UniProt Q08722). Description: flow cytometry on human red blood cells, donor 2, MFI; EC50 (nM) table beside the legend; control whose curve stays low.

Consider IgG (antibody), for which the EC50 (usually the concentration giving half of the maximal effect) was 80 pM. This counts as picomolar.
